# Publication PMC5408928
# Target: yeast 80S ribosome (S. cerevisiae)
# Assay: crystal structure
row,Substance,eIF5A-occupancy refinement (%)
1,hypusinated eIF5A from Saccharomyces cerevisiae (from UniProt P23301 1-157) (natural protein),97
2,unmodified eIF5A from S. cerevisiae (from UniProt P23301 1-157) (natural protein),88
